# From the DeepSol protein solubility set
# Assay: soluble on expression in E. coli; label from the status in PepcDB or PDB records
row,Sequence,soluble on expression in E. coli
1,MLAYQGTQIKEKRDEDAGFDLCVPYDIMIPVSDTKIIPTDVKIQVPPNSFGWVTGKSSMAKQGLLINGGIIDEGYTGEIQVICTNIGKSNIKLIEGQKFAQLIILQHHSNSRQPWDENKISQRGDKGFGSTGVF,soluble
2,MGSDKIHHHHHHMKIYRVGGSVRDELLGLPVKDQDYVVVGATPEEMVRLGYRPVGKDFPVFLHPETHEQYALARTERKIARGYKGFEVYAAPGVTLQEDLARRDLTINAMARDEAGDIVDPFGGIADLQAGILRHIGPAFVEDPVRVLRVARFAARFGFQIAPETLELMKEIVHTGETEALVPERVWQEIAHGLMESHPSRMFYVLRECGALARILPEVDALFGVPQPAHAHPEIDTGIHVMMVIDHAASKQYPLEVRFAGLTHDLGKGTTSPDEWPRHIGHEARSVELVMGLCERIRVPGESRDLALLVARFHGDVHRALELRPATIADMLQATDAYRKKARFQAFLQACASDFHGRPGFADKPYPQKEHLSRALQVAVDVDAGAIAMQLNQSHAGKADLPMRINRQVYAARVERISSLLSHL,not soluble
3,MAESKAKNMFQKLSLTPKRNHEHDAGRNIETEEELLQKLKRLKLDNDYLHMWLSYEKLATIVENRSTDKTRKPEYGKLIFYYQGAAHALVSIWKRDSDLPFEQYISGDIARLFNKALDVAIRHMDPTVVHTIARDGGVALMSIDKPIEARDVLVRGENHLVAVPADGQLDFLERLIVLYYIMDSILIEERWNEYMVYTDKVWMMTMKEDKRCPLLENIIKEVEQVAVLLLVFQRKVECSERHKQLLASYRLDDWKAPIIKHNPPLSSLNPSEQKVFRRFLFYMMSNKRSVDKVLKHR,not soluble
4,MASYTLRQLKYFVTTVECGSVAEASRKLYIAQPSISTAVKGLEESFGVQLFIRHHAQGVSLTPAGARFYRKAQELLRMAHEFEQNALADNDVIAGQIDIGCFETVAPLYLPGLIAGFRQAYPGVEIRIRDGEQQELVQGLTSGRFDLAFLYEHDLDSTIETEPLMPPQRPHALLPEGHRFAGQAQVSLRDLCLEPMILLDVQPSRTYFVSLFEELGLTPNIAFSSPSIEMVRGMVGQGFGFSLLVTRPHSECTYDGKKVVMVDLAEPVSTSGLAAAWLKRAQLTKPARLFVDYCREQLGKLAERRH,soluble
5,MGSDKIHHHHHHMGNRQRILPLGVQAPATLEGYYPCPNAAALHAVLKLVAEPQGLCLYLYGPGGVGKSHLLLGAASALAGWTPYMDCGDVPQLFNRIKDLEGFSSLVAAPLLCLDNIEVWAGQRDKETFLFDLYNERMSNGRPMLLAGRAAPRFLDWALPDWASRASACLQVALRLPDDTERMAILQEMAQRRGLQIGVEAAHYLLRHHARDPRTLDGLLTILDAGSWEHQREVTIPFIRLCLGAEKP,not soluble
6,MTHYKYYEANVETNQVLVLLHGFLSDSRTYYNHIDKYTDICHVITIDLPGHGEDQSSMDETWNFDYITTLLDRILDKYKDKSITLFGYSMGGRVALYYAINGHIPISNLILESTSPGIKEEANQLERRLVDDARAKVLDIAGIELFVNDWEKLPLFQSQLELPVEIQHQIRLQRLSQSPQKMAKALRDYGTGQMPNLWPRLKEIKVPTLILAGEYDEKFVQIAKKMANLIPNSKCKLISATGHTIHVEDSDEFDTMILGFLKEEQND,not soluble
7,MGSDKIHHHHHHMSLFDHKITELKQLIHKKEIKISDLVDESYKRIQAVDDKVQAFLALDEERARAYAKELDEAVDGRSEHGLLFGMPIGVKDNIVTKGLRTTCSSKILENFDPIYDATVVQRLQDAEAVTIGKLNMDEFAMGSSTENSAYKLTKNPWNLDTVPGGSSGGSAAAVAAGEVPFSLGSDTGGSIRQPASFCGVVGLKPTYGRVSRYGLVAFASSLDQIGPITRTVEDNAFLLQAISGVDKMDSTSANVDVPDFLSSLTGDIKGLKIAVPKEYLGEGVGKEARESVLAALKVLEGLGATWEEVSLPHSKYALATYYLLSSSEASANLARFDGIRYGYRTDNADNLIDLYKQTRAEGFGNEVKRRIMLGTFALSSGYYDAYYKKAQKVRTLIKKDFEDVFEKYDVIVGPTTPTPAFKIGENTKDPLTMYANDILTIPVNLAGVPGISVPCGLADGLPLGLQIIGKHFDESTVYRVAHAFEQATDHHKAKPEL,not soluble
8,GFKDYGHDYHPAPKTENIKGLGDLKPGIPKTPKQNGGGKRKRWTGDKGRKIYEWDSQHGELEGYRASDGQHLGSFDPKTGNQLKGPDPKRNIKKYL,soluble
9,MSSLGASFVQIKFDDLQFFENCGGGSFGSVYRAKWISQDKEVAVKKLLKIEKEAEILSVLSHRNIIQFYGVILEPPNYGIVTEYASLGSLYDYINSNRSEEMDMDHIMTWATDVAKGMHYLHMEAPVKVIHRDLKSRNVVIAADGVLKICDFGASRFHNHTTHMSLVGTFPWMAPEVIQSLPVSETCDTYSYGVVLWEMLTREVPFKGLEGLQVAWLVVEKNERLTIPSSCPRSFAELLHQCWEADAKKRPSFKQIISILESMSNDTSLPDKCNSFLHNKAEWRCEIEATLERLKKLERDLSFKEQELKERERRLKMWEQKLTEQSNTPLLLPLAARMSEESYFESKTEESNSAEMSCQITATSNGEGHGMNPSLQAMMLMGFGDIFSMNKAGAVMHSGMQINMQAKQNSSKTTSKRRGKKVNMALGFSDFDLSEGDDDDDDDGEEEDNDMDNSE,soluble
10,SGSQAGSFRKASPQTPNIDENEKRIKRLEKLKRDLQNIKNERGILQGILAKYKDLNDRTNFETFMLEMQHNQMMTDLKRMSQDISEALYKCQHLTKENQLYCCRNCHLLIESNLIQHKVRMLWKENRQLLRKQIALEECNIKTKILCKEGSQKIKDEYSRQAAGKQIIVVPGSKEEAAMSNPCA,soluble
11,GKDFKYNIGFNLSDVKNKVIDLRGYKSSTTELTAKIEGQPLNAIFGFETLGICDNQELYDKYAPMMQKYNPKWGMGDIIIKDRTGEGVINDEDRTVIGNSIPRFTFGLNLGFEYKGFDFSCFFQGVGKADGYVTMEAIQPMGINGARKEHYKESFNPQDPKPGAYFPRILSSDYNYAYMSHWVQDASYIRLKNLQIGYSFKIKGLNQLRVYASGENLFTATKYRTWDPETPVGARGFYPNVAVYSMGVNLNF,not soluble
12,MKTVTARPLTAEAFAPYGSVADISELENLVSLADAYEGTGEAKTPVLQLVQAKAMSGSPVISQMEIHPFSSQTFLPLDQSSSLIVVCEAGEDGMPDESTIKAFLASPSQIVTYRHGVMHHRLTPLAPSGRFAMTMWQTGRGGDTVLYPLHTPVSVDISDITP,not soluble
13,GPGSMPSKRATRVQKLHEGTGDDNLPVFSIFIEKEGEGQYGRIDIEIFVNKVPKSCEIFLHSCPAALTGDKRVSKPSLVRQHRFLRLTNEGLQVGERPVSRLVSLSDIENEIGRVNHGIGVVSLCRSSNTFDESFFFCLTDNRTELESLDKRHTAFGRVVYGLELLFLLRDALIPYVKEGCVIEGSPYAISDILPKAAT,soluble
14,MGSDKIHHHHHHMSENHWENQPGTPPDVTPECGQESDGERLYLWRQIVHWRSGTGGSQCNPLIELDKQNHWSVMNGGATGASGWLLVPTDRKKGIECRDIWTHRDPNYWNAAWGYVRSPYGSPTTTGLGINSKDKRTQDQLHIHIATFQSDAKTYLDARSPSEIATTPGDWAKKLLTVPSDSKPGQVYRVLHVKDLATDNLFNLLQSNVVSSDQMGNQTMIVIPAKSGGFYVLNSDISLSQGAAFGTGTCNHLLKCS,not soluble
15,MGSDKIHHHHHHMKPLADRIRPENFNEVFGQKHIIGEGKILDRILKSSLVPNMIFYGPPGTGKTTVANIIAKKTNKAFYKLNATTASVKDVREITDSTNTLMGRNGVLLYLDEIQNFNKKQQQSLLEFMENGSITLIASTTENPYFYVYNAILSRSTIFEFKPLESDELMKAVNRAVELIKDELKTTEIIITEDAKKYAVGVSSGDVRKTLNSIEIAVYSTKPNEEGNIFIDLETMKECTQKNVLNFDKDGDNHYDILSAFQKSIRGSDADAAVLYLAMLIKGGDLKSICRRLLVIAAEDIGLAYPQAISIVKACTDSALELGFPEARIPLAEAVILLATSPKSNSAITAVDSALRDLDTINVGSIPDYLRDGHYEGAKKLGRMQDYKYPHSYENNYVKQKYLPSNLENRRYYEYGKNKIEEKCREYWERIKY,not soluble
16,MFKKIATILGSTLFGTVLFAKVKEKRSYKSFLQEKMIRISGMKKTFESIDDAKKALNETKYQTAGKYNGTTYEFKHKVQIRDYYGSLVYVVNDHGLPDQRTVLYVHGGAWFQDPLENHFEYLDLLVDALDARVIMPVYPKIPHRDYRTTFELLTKIYKRLLTKIDEPENLVIIGDSAGGQIALAFAQMLKKEQLSQPGHIVLISPVLDATFKNPEARKYEKEDPMLGIDGSKYLVELWAGDAPLDDYKMSPMNGDLEGLGHITLTVGTKETLYPDAVKFSHMLNDKGIKHQFIPGYNLFHIYPLFPIPERQRFLEQLKKIIVTKEL,not soluble
17,SKLLENSSFEAINSQLTVETGDAHIIGRIESYSCKMAGDDKHMFKQFCQEGQPHVLEALSPPQTSGLSPSRLSKSQGGEEEGPLSDKCSRKTLFYLIATLNESFRPDYDFSTARSHEFSREPSLSWVVNAVNCSLFSAVREDFKDLKPQLWNAVDEEICLAECDIYSYNPDLDSDPFGEDGSLWSFNYFFYNKRLKRIVFFSCRSISGSTYTPSEAGNELDMELGEEEVEEESRSRGSGAEETSTMEEDRVPVICI,soluble
18,GPGSMALGSGIGLVPMWSSCPSVNPPTFPKGGIEILRQSLEAQEEVERTFREREAGHIECLNFKKSLRHLLRKQNERREELQLVEQRASERTQALLDELLIVVRERLKAMSPEGYQSITFDNGDMYEGNWKSCRMHGTGVMRRVADNDIYEGEWFFGVRNGNGMCCSPNFGTLYSGKWLAGKWHGRGELAEPEGLYIGDFVDGQIRGYGEYLYREGYAYKGDWVNGVYEGSGTFFYTNGARYEGQWRNGYEHGRGTMTYYNGDVYTGDWCNGRKHGTGTYTSKLLQYEGGWSSGAVHGIGKCTYADGSMYKGSWCRGLYDGDGEFVSQDKKCSYKGEFRGGKRCGRGVYQCGEVEYSGDWLDDRRHGVGEIKTRDGRVFRGTWSHDEPHCEVVPGCNLEGTSLSYCGGRGAPIAPEEPDPVLNMRLGLPDEVIDCMADAPT,not soluble
19,MAITINIYYSGTNGGAREFAKEMIASGIVEAIRAEKGNSRYEYFFPMDDEETVLLIDSWTDQEALDKHHASPMMTRITELREKYDLHMKVERYVSDVTDPLTKDAAFIRK,not soluble
20,MGHHHHHHSHMLVDNLYRVVSNQKDAAVIRVHLEVNASHEIFKGHFPEVPVLPGVCMVQCIKELIEESLLVKTQIDKGDMIKFLSMLNPVESNSIQAEISIKEKTETRIVFQATLKNEDRFLLKYSGSLVVLN,not soluble
21,LATMKDVARLAGVSTSTVSHVINKDRFVSEAITAKVEAAIKELNYAPSALARSLKLNQTHTIGMLITASTNPFYSELVRGVERSCFERGYSLVLCNTEGDEQRMNRNLETLMQKRVDGLLLLCTETHQPSREIMQRYPTVPTVMMDWAPFDGDSDLIQDNSLLGGDLATQYLIDKGHTRIACITGPLDKTPARLRLEGYRAAMKRAGLNIPDGYEVTGDFEFNGGFDAMRQLLSHPLRPQAVFTGNDAMAVGVYQALYQAELQVPQDIAVIGYDDIELASFMTPPLTTIHQPKDELGELAIDVLIHRITQPTLQQQRLQLTPILMERGSA,soluble
22,MGEQQLDCALDLMRRLPPQHCDKNLTDLIDLCPHLVDDLLSTIDQPLKIAADRETGKQYLLCDYNRDGDSYRSPWSNTYDPPLEDGQLPSEKRRKMEIEANAAFESYRDLYFEGGVSSVYFWDLDNGGFAGIVLIKKEGDGAKNITGCWDSIHVIEITERARQAHYKLTSTIMLWLQTNKSSSGVMNLGGSLTRQHEMDAPINDQNTHLANMGRMIEDQESKMRLTINEIYFGKTKKVMSDLRSTEKQSELEKQDEIVRELNNAMANRGN,soluble
